Key:
[1] = biological target: human HLA-G expressed on cells (JEG3 naturally; Skov3 and PA-TU-8902 transfectants) (human); experiment: cell-based or functional assay
[2] = biological target: T1, monomeric human HLA-G β2M MHC class I complex (soluble recombinant wt HLA-G) (human); experiment: ELISA, biotinylated wt HLA-G monomer on streptavidin plate; the 6th table ELISA series (monomer, dimer, trimer), separate from the 7th table
T1 construct: also called HLA-G-0003; wt HLA-G (monomer)
Method: The above table summarizes the binding of different rat anti-human HLA-G monoclonal antibodies, derived from wt protein IMS. Shown are the relative EC50 values [ng/ml] of the respective binding to rec. wt monomeric, dimeric and trimeric HLA-G proteins as assessed by ELISA. The ELISA was set up by coating the biotinylated wt HLA-G antigen to strepdavidin plates. After incubation and washing steps, the respective antibodies were bound in a concentration range from […] in 1:2 dilution steps. Detection of bound antibodies was carried out by anti-Fc-antibody-POD conjugates. EC50 values were determined from the resulting binding curves at the antibody concentrations generating the half-maximal signal. In case of the non-biotinylated HLA-G dimer and trimer antigens, immobilization was carried out by random coating on assay plates.

Binder	% TNF release (restoration), different donor, JEG-3 wt co-culture; antibody 0.16 µg/ml [1] [%]	% TNF release (restoration), different donor, JEG-3 wt co-culture; antibody 0.63 µg/ml [1] [%]	% TNF release (restoration), different donor, JEG-3 wt co-culture; antibody 2.5 µg/ml [1] [%]	% TNF release (restoration), different donor, JEG-3 wt co-culture; antibody 10 µg/ml [1] [%]	EC50 [2] [ng/mL]
HLA-G-0090 (antibody, V domains shown) VH: QVQLQQSGPGLLKPSQTLSLTCAISGDSVSSNRAAWNWIRQSPSRGLEWLGRTYYRSKWYNDYAVSVQGRITLIPDTSKNQFSLRLNSVTPEDTAVYYCASVRAVAPFDYWGQGVLVTVSS VL: not shown	198	219	233	221	–
HLA-G-0031 (antibody, V domains shown) VH: QVKLMQSGAALVKPGTSVKMSCNASGYTFTDYWVSWVKQSHGKRLEWVGEISPNSGASNFDENFKDKATLTVDKSTSTAYMELSRLTSEDSAIYYCTRSSHGSFRWFAYWGQGTLVTVSS VL: AIVLNQSPSSIVASQGEKVTITCRASSSVSSNHLHWYQQKPGAFPKFVIYSTSQRASGIPSRFSGSGSGTSYSFTISRVEAEDVATYYCQQGSSNPYTFGAGTKLELK	14	44	67	74	–
HLA-G-0041 (antibody, V domains shown) VH: EVQLLESGGGLVQPGGSLRLSCAASGFTFSTYGMSWVRQAPGKGLEWVSVISGGGVSTYYADSVKGRFTISRDNSKNTLYLQMNRLRAEDTAVYYCAKDGSYNYGYGDYFDYWGQGTLVTVSS VL: not shown	44	66	59	40	4.95

From patent publication US20250051456A1 (Hoffmann-La Roche, published 2025)
